The target in the test is PaPlaB, phospholipase B of Pseudomonas aeruginosa PA01 (gene pa2927) (P. aeruginosa PA01). The test can be described thus: SEC-MALS.

In turn, “PaPlaB, phospholipase B of Pseudomonas aeruginosa PA01 (gene pa2927) (enzyme)” returned a stoichiometry N of 7.

These data come from publication doi:10.1101/2021.06.15.448513.
